“And” between values parts separate entries of the source, which are not always exact repeats. Equal entries are not always repeated.
Molecular target: T1, Biotin Ang2 (R & D Systems) (UniProt O15123 19-496, biotinylated (sites not given))
T1 sequence (looked up): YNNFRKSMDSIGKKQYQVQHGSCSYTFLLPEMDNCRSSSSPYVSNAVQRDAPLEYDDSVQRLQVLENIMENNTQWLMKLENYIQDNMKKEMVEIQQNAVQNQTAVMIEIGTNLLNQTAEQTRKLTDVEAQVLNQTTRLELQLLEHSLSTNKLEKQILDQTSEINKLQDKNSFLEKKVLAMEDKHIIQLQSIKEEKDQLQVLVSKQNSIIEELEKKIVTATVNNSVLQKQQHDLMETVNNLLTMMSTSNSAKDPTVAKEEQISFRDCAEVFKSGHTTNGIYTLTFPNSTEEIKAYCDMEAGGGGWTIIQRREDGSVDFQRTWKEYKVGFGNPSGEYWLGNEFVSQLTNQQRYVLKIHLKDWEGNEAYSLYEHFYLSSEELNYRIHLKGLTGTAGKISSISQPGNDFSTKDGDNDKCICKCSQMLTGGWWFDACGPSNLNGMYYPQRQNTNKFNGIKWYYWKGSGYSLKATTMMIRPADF
Assay: competition ELISA: Tie-2 Fc coated on the plate, antibody varied, blocked ligand binding is Biotin Ang2 to Tie-2 Fc, streptavidin HRP, O.D. 450 nm
Protocol: The following day, plates were blocked for 1 hour at room temperature with 200 μl of phosphate buffered saline (PBS) (Invitrogen, Carlsbad, Calif.) containing 0.5% bovine serum albumin (BSA) (Sigma, St. Louis, Mo.) and 0.1% Tween-20 (Sigma, St. Louis, Mo.). Plates were washed 3 times with wash buffer (PBS containing 0.05% Tween-20). […] Plates were washed 3 times with wash buffer. Following the wash, 100 ul of 1:5000 streptavidin HRP (Pierce, Rockford, Ill.) dilution in wash buffer were added and incubated for 1 hour at room temperature. Plates were washed 3 times with wash buffer. Plates were developed by adding 100 μl of TMB peroxidase substrate (KPL, Gaithersburg, Md.) for 5 minutes. The reaction was stopped by adding 100 μl/well of 1M phosphoric acid. Optical densities were measured at 450 nm with a microplate reader (Molecular Devices, Sunnyvale, Calif.).

B1: Ang-2 antibody 3.19.3 (antibody, V domains shown)
VH: QVQLVESGGGVVQPGRSLRLSCAASGFTFTNYGMHWGRQAPGKGLEWVAVISHDGNNKYYVDSVKGRFTISRDNSKNTLYLQMNSLRAEDTAVYYCAREGIDFWSGLNWFDPWGQGTLVTVSS
VL: EIVLTQSPGTLSLSPGERATLSCRASQSITGSYLAWYQQKPGQAPRLLICGASSWATGIPDRFSGSGSGTDFTLTISRLEPEDFAVYYCQQYSSSPITFGQGTRLEIKR
notes: Fully human monoclonal antibody; also called WT
IC50 (read off the curve): ~0.1 µg/mL and ~0.2 µg/mL

Source: patent publication US20170174756A1 (AstraZeneca / MedImmune, published 2017)
